Measurements taken from patent US20230213525A1, “DETECTING MICROBIAL INFECTION IN WOUNDS” (QUALIZYME DIAGNOSTICS GMBH & CO KG, priority 2016, published 2023).

Target: T1, Elastase (Homo sapiens, UniProt P08246)
T1 sequence (P08246 30-267): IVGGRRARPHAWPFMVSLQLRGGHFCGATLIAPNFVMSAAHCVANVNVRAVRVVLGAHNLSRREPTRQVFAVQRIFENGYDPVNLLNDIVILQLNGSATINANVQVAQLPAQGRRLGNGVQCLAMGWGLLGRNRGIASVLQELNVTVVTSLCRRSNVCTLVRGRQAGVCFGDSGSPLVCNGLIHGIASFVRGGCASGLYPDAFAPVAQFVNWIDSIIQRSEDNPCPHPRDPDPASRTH
Assay: Reaction of Trx-Ela-Sub 1-RBB with Elastase
Format: biochemical
Details: incubated with and without Elastase containing buffer; FIG. 10
Method: The stained and purified peptide construct was applied on a cellulose surface and dried at 37° C. for 2 h. Unbound Trx-Ela-Sub 1-RBB was removed with H20. The stripes with the applied Elastase substrate were incubated with and without Elastase containing buffer, respectively.

B1: Trx-Ela-Sub 1-RBB: purified Trx-Ela-Sub1 fusion protein stained with vinyl sulfone dye remazol brilliant blue R (conjugate)
chain: MSDKIIHLTDDSFDTDVLKADGAILVDFWAEWCGPCKMIAPILDEIADEYQGKLTVAKLNIDQNPGTAPKYGIRGIPTLLLFKNGEVAATKVGALSKGQLKEFLDALAGSGSGHMHHHHHHSSGLVPRGSGMKETAAAKFERQHMDSPDLGTDDDDKAMGGSCGGGGSAAPVGGGGSAAPVGGGGSPPGGNRGTTTTRRPATTTGSSPGPTQSHYGQCGGIGYSGPTVCASGTTCQVLNPYYSQCLLEHHHHHH
dye release from cellulose stripes: Elastase responsive dye release
